The test deals with human recombinant eL42-Δ(GGQTK) variant, His-tagged (human, UniProt P83881 1-106, Δ(GGQTK), residues 49-GGQTK-53 deleted). The test can be described thus: SPR; Biacore 3000; His-tagged eL42 species immobilised by amine coupling on a CM5 chip; eRF1 or EF-3 as analyte; 25°C, HBS-EP (10 mM HEPES pH 7.4, 150 mM NaCl, 3 mM EDTA, 0.005% P20), 5 µL/min; 1:1 Langmuir fit; mean of 3 experiments. The following applies: both partners purified. (SPR reads the build-up and loss of mass on a sensor chip optically.)

Results on one molecule are retold here after article PMC5418926, “A Functional Role for the Monomethylated Gln-51 and Lys-53 Residues of the 49GGQTK53 Motif of eL42 from Human 80S Ribosomes” (The Open Biochemistry Journal, 2017).

B1: elongation factor 3 (EF-3) from S. cerevisiae, His-tagged (natural protein, UniProt P16521 1-1044, looked up)
chain: MSDSQQSIKVLEELFQKLSVATADNRHEIASEVASFLNGNIIEHDVPEHFFGELAKGIKDKKTAANAMQAVAHIANQSNLSPSVEPYIVQLVPAICTNAGNKDKEIQSVASETLISIVNAVNPVAIKALLPHLTNAIVETNKWQEKIAILAAISAMVDAAKDQVALRMPELIPVLSETMWDTKKEVKAAATAAMTKATETVDNKDIERFIPSLIQCIADPTEVPETVHLLGATTFVAEVTPATLSIMVPLLSRGLNERETGIKRKSAVIIDNMCKLVEDPQVIAPFLGKLLPGLKSNFATIADPEAREVTLRALKTLRRVGNVGEDDAIPEVSHAGDVSTTLQVVNELLKDETVAPRFKIVVEYIAAIGADLIDERIIDQQAWFTHITPYMTIFLHEKKAKDILDEFRKRAVDNIPVGPNFDDEEDEGEDLCNCEFSLAYGAKILLNKTQLRLKRARRYGICGPNGCGKSTLMRAIANGQVDGFPTQEECRTVYVEHDIDGTHSDTSVLDFVFESGVGTKEAIKDKLIEFGFTDEMIAMPISALSGGWKMKLALARAVLRNADILLLDEPTNHLDTVNVAWLVNYLNTCGITSITISHDSVFLDNVCEYIINYEGLKLRKYKGNFTEFVKKCPAAKAYEELSNTDLEFKFPEPGYLEGVKTKQKAIVKVTNMEFQYPGTSKPQITDINFQCSLSSRIAVIGPNGAGKSTLINVLTGELLPTSGEVYTHENCRIAYIKQHAFAHIESHLDKTPSEYIQWRFQTGEDRETMDRANRQINENDAEAMNKIFKIEGTPRRIAGIHSRRKFKNTYEYECSFLLGENIGMKSERWVPMMSVDNAWIPRGELVESHSKMVAEVDMKEALASGQFRPLTRKEIEEHCSMLGLDPEIVSHSRIRGLSGGQKVKLVLAAGTWQRPHLIVLDEPTNYLDRDSLGALSKALKEFEGGVIIITHSAEFTKNLTEEVWAVKDGRMTPSGHNWVSGQGAGPRIEKKEDEEDKFDAMGNKIAGGKKKKKLSSAELRKKKKERMKKKKELGDAYVSSDEEF
notes: S. cerevisiae elongation factor 3; The expression strain was a gift of Maria Mateyak; also called eEF-3; yeast EF-3; source: E. coli TKBL40 (BL21, His-tagged eEF-3 in pET11a), purified (His GraviTrap)
With B1, the dissociation constant Kd – broadly, a measure of binding affinity in units of concentration – was found to be 9.2 µM.
